Source: patent US20140105889A1 (published 2014)
Positions count from the first letter of the chain named. In names and notes the source's numbering stands. Values belong to the binder of their own block, whether it stands above or below them.

Legend:
Test in all cases: SPR (Biacore), FcγR over captured antibody; binding amount / that of IL6R-BF648/IL6R-L x100
human FcγRIIa type H = molecular target: T1, human FcγRIIa type H (human, UniProt P12318 36-217)
T1 construct: also called FcgRIIaH; FcγRIIa(H)
T1 sequence: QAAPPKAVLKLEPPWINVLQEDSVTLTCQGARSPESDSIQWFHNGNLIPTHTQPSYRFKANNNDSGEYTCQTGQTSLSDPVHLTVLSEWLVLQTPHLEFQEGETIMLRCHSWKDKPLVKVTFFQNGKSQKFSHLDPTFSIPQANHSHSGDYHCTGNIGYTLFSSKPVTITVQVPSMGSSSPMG
Experimental: (§1) According to the following method, relative binding activities were calculated for the results of analyzing interactions with the respective FcγRs.

human FcγRIIIa type V = molecular target: T2, human FcγRIIIa type V (human, UniProt P08637 17-208, limits assumed)
T2 construct: Allotype V158 was used; also called FcgRIIIaV; FcγRIIIa(V)
T2 sequence (P08637 other isoform, or with tags, fused parts or gaps limits assumed): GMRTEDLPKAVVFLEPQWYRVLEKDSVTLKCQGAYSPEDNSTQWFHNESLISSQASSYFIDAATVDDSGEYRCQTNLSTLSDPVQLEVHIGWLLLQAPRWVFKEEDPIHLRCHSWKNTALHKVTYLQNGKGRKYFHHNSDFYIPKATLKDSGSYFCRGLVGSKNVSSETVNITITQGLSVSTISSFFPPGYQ
Experimental: as §1

human FcγRIa = molecular target: T3, human FcγRIa (human, UniProt P12314 16-292, limits assumed)
T3 construct: also called FcgRIa; CD64
T3 sequence (P12314 16-292 limits assumed): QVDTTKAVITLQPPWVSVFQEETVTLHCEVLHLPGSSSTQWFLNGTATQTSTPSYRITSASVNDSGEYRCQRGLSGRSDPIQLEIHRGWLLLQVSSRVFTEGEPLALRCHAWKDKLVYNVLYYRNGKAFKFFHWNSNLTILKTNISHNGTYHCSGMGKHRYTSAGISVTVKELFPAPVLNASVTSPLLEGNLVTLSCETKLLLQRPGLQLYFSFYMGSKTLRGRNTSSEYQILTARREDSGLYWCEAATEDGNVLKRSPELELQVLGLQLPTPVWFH
Experimental: as §1

human FcγRIIa type R = molecular target: T4, human FcγRIIa type R (human, UniProt P12318 36-217)
T4 construct: also called FcgRIIaR; FcγRIIa(R)
T4 chain: T1 sequence with H133R
Experimental: as §1

human FcγRIIb = molecular target: T5, human FcγRIIb (human, UniProt P31994 43-217)
T5 construct: also called FcgRIIb; FcγIIB
T5 sequence: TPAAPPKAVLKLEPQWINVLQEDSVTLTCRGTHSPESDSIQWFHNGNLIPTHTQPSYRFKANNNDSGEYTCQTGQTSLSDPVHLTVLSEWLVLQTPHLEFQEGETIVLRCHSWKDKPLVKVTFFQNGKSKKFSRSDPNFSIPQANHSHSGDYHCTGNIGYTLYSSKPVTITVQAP
Experimental: as §1

- relative binding activity (human FcγRIIa type H): 253 % of IL6R-BF648/IL6R-L
- relative binding activity (human FcγRIIIa type V): 118 % of IL6R-BF648/IL6R-L
- relative binding activity (human FcγRIa): 33 % of IL6R-BF648/IL6R-L
- relative binding activity (human FcγRIIa type R): 364 % of IL6R-BF648/IL6R-L
B1: IL6R-BP131/IL6R-L (antibody, human IgG1)
heavy: QVQLQESGPGLVKPSETLSLTCAVSGHSISHDHAWSWVRQPPGEGLEWIGFISYSGITNYNPSLQGRVTISRDNSKNTLYLQMNSLRAEDTAVYYCARSLARTTAMDYWGEGTLVTVSSASTKGPSVFPLAPSSKSTSGGTAALGCLVKDYFPEPVTVSWNSGALTSGVHTFPAVLQSSGLYSLSSVVTVPSSSLGTQTYICNVNHKPSNTKVDKKVEPKSCDKTHTCPPCPAPDLLGDDSVFLFPPKPKDTLMISRTPEVTCVVVDVSHEDPEVKFNWYVDGVEVHNAKTKPREEQYNSTYRVVSVLTVLHQDWLNGKEYKCKVSNKALPKPIEKTISKAKGQPREPQVYTLPPSRDELTKNQVSLTCLVKGFYPSDIAVEWESNGQPENNYKTTPPVLDSDGSFFLYSKLTVDKSRWQQGNVFSCSVMHEALHNHYTQESLSLSP
light: DIQMTQSPSSLSASVGDRVTITCRASQDISSYLNWYQQKPGKAPKLLIYYTSRLHSGVPSRFSGSGSGTDFTFTISSLQPEDIATYYCQQGNTLPYTFGQGTKVEIK

- relative binding activity (human FcγRIIa type H): 621 % of IL6R-BF648/IL6R-L
- relative binding activity (human FcγRIIIa type V): 221 % of IL6R-BF648/IL6R-L
- relative binding activity (human FcγRIa): 39 % of IL6R-BF648/IL6R-L
- relative binding activity (human FcγRIIa type R): 705 % of IL6R-BF648/IL6R-L
B2: IL6R-BP151/IL6R-L (antibody, human IgG1)
heavy: B1 heavy with L236Y, K328A, K332R
light: B1 light

- relative binding activity (human FcγRIIa type H): 91 % of IL6R-BF648/IL6R-L
- relative binding activity (human FcγRIIIa type V): 107 % of IL6R-BF648/IL6R-L
- relative binding activity (human FcγRIa): 50 % of IL6R-BF648/IL6R-L
- relative binding activity (human FcγRIIb): 122 % of IL6R-BF648/IL6R-L
- relative binding activity (human FcγRIIa type R): 87 % of IL6R-BF648/IL6R-L
B3: IL6R-BP083/IL6R-L (antibody, human IgG1)
heavy: B1 heavy with D235E, D239G, Y298D
light: B1 light
notes: The variants were built on IL6R-BF648 (P238D), so it is read as P238D

- relative binding activity (human FcγRIIa type H): 259 % of IL6R-BF648/IL6R-L
- relative binding activity (human FcγRIa): 51 % of IL6R-BF648/IL6R-L
- relative binding activity (human FcγRIIb): 179 % of IL6R-BF648/IL6R-L
- relative binding activity (human FcγRIIa type R): 653 % of IL6R-BF648/IL6R-L
B4: IL6R-BP178/IL6R-L (antibody, human IgG1)
heavy: B1 heavy with P273G
light: B1 light

- relative binding activity (human FcγRIIa type H): 158 % of IL6R-BF648/IL6R-L
- relative binding activity (human FcγRIIIa type V): 104 % of IL6R-BF648/IL6R-L
- relative binding activity (human FcγRIa): 19 % of IL6R-BF648/IL6R-L
- relative binding activity (human FcγRIIb): 152 % of IL6R-BF648/IL6R-L
- relative binding activity (human FcγRIIa type R): 279 % of IL6R-BF648/IL6R-L
B5: IL6R-BP085/IL6R-L (antibody, human IgG1)
heavy: B1 heavy with D235E
light: B1 light

- relative binding activity (human FcγRIIa type H): 128 % of IL6R-BF648/IL6R-L
- relative binding activity (human FcγRIa): 102 % of IL6R-BF648/IL6R-L
- relative binding activity (human FcγRIIb): 147 % of IL6R-BF648/IL6R-L
- relative binding activity (human FcγRIIa type R): 201 % of IL6R-BF648/IL6R-L
B6: IL6R-BP176/IL6R-L (antibody, human IgG1)
heavy: B1 heavy with D239G, K328D
light: B1 light

- relative binding activity (human FcγRIIa type H): 1600 % of IL6R-BF648/IL6R-L
- relative binding activity (human FcγRIIIa type V): 3260 % of IL6R-BF648/IL6R-L
- relative binding activity (human FcγRIa): 145 % of IL6R-BF648/IL6R-L
- relative binding activity (human FcγRIIb): 58 % of IL6R-BF648/IL6R-L
- relative binding activity (human FcγRIIa type R): 625 % of IL6R-BF648/IL6R-L
B7: IL6R-B3/IL6R-L (antibody, human IgG1)
heavy: not shown
light: B1 light
notes: Parent polypeptide

- relative binding activity (human FcγRIIa type H): 548 % of IL6R-BF648/IL6R-L
- relative binding activity (human FcγRIa): 34 % of IL6R-BF648/IL6R-L
- relative binding activity (human FcγRIIb): 178 % of IL6R-BF648/IL6R-L
- relative binding activity (human FcγRIIa type R): 638 % of IL6R-BF648/IL6R-L
B8: IL6R-BP152/IL6R-L (antibody, human IgG1)
heavy: B1 heavy with L236Y, Y298D, K328A, K332R
light: B1 light

- relative binding activity (human FcγRIIa type H): 91 % of IL6R-BF648/IL6R-L
- relative binding activity (human FcγRIIIa type V): 87 % of IL6R-BF648/IL6R-L
- relative binding activity (human FcγRIa): 100 % of IL6R-BF648/IL6R-L
- relative binding activity (human FcγRIIb): 115 % of IL6R-BF648/IL6R-L
- relative binding activity (human FcγRIIa type R): 94 % of IL6R-BF648/IL6R-L
B9: IL6R-2B261/IL6R-L (antibody, human IgG1)
heavy: B1 heavy with D239G, Y298D, K332A
light: B1 light

- relative binding activity (human FcγRIIa type H): 100 % of IL6R-BF648/IL6R-L
- relative binding activity (human FcγRIIIa type V): 100 % of IL6R-BF648/IL6R-L
- relative binding activity (human FcγRIa): 100 % of IL6R-BF648/IL6R-L
- relative binding activity (human FcγRIIb): 100 % of IL6R-BF648/IL6R-L
- relative binding activity (human FcγRIIa type R): 100 % of IL6R-BF648/IL6R-L
B10: IL6R-BF648/IL6R-L (antibody, human IgG1)
heavy: not shown
light: B1 light

- relative binding activity (human FcγRIIa type H): 116 % of IL6R-BF648/IL6R-L
- relative binding activity (human FcγRIIIa type V): 123 % of IL6R-BF648/IL6R-L
- relative binding activity (human FcγRIa): 72 % of IL6R-BF648/IL6R-L
- relative binding activity (human FcγRIIb): 137 % of IL6R-BF648/IL6R-L
- relative binding activity (human FcγRIIa type R): 155 % of IL6R-BF648/IL6R-L
B11: IL6R-BP086/IL6R-L (antibody, human IgG1)
heavy: B1 heavy with D235E, D239G, K328A
light: B1 light

- relative binding activity (human FcγRIIa type H): 162 % of IL6R-BF648/IL6R-L
- relative binding activity (human FcγRIIIa type V): 106 % of IL6R-BF648/IL6R-L
- relative binding activity (human FcγRIa): 109 % of IL6R-BF648/IL6R-L
- relative binding activity (human FcγRIIb): 141 % of IL6R-BF648/IL6R-L
- relative binding activity (human FcγRIIa type R): 203 % of IL6R-BF648/IL6R-L
B12: IL6R-BP084/IL6R-L (antibody, human IgG1)
heavy: B1 heavy with D235E, D239G, V325M
light: B1 light
